Measured values from PMC9585516, “In Vitro Demonstration of Human Lipoyl Synthase Catalytic Activity in the Presence of NFU1” (ACS Bio & Med Chem Au, 2022).

B1: human NFU1, amino acids 59-254, holo form (domain or fragment)
chain: GHMFIQTQDTPNPNSLKFIPGKPVLETRTMDFPTPAAAFRSPLARQLFRIEGVKSVFFGPDFITVTKENEELDWNLLKPDIYATIMDFFASGLPLVTEETPSGEAGSEEDDEVVAMIKELLDTRIRPTVQEDGGDVIYKGFEDGIVQLKLQGSCTSCPSSIITLKNGIQNMLQFYIPEVEGVEQVMDDESDEKEANSP
notes: Gly-His N-terminal appendage left after removal of the His6-SUMO tag; NFU1, human, Q9UMS0 (full length 1-254), N-terminally truncated variant, amino acids 59-254; Holo form with a [4Fe-4S] cluster; also called holo-NFU1; NFUI; source: E. coli BL21 (DE3) with pDB1282, purified under anoxic conditions (Ni-IMAC, SUMO tag removed with ULP1, SEC); not shown: His6, N-terminal, cleaved; SUMO, …
B2: human lipoyl synthase (LIAS), amino acids 28-372, holo form (enzyme)
chain: GHLSSLPDKKKELLQNGPDLQDFVSGDLADRSTWDEYKGNLKRQKGERLRLPPWLKTEIPMGKNYNKLKNTLRNLNLHTVCEEARCPNIGECWGGGEYATATATIMLMGDTCTRGCRFCSVKTARNPPPLDASEPYNTAKAIAEWGLDYVVLTSVDRDDMPDGGAEHIAKTVSYLKERNPKILVECLTPDFRGDLKAIEKVALSGLDVYAHNVETVPELQSKVRDPRANFDQSLRVLKHAKKVQPDVISKTSIMLGLGENDEQVYATMKALREADVDCLTLGQYMQPTRRHLKVEEYITPEKFKYWEKVGNELGFHYTASGPLVRSSYKAGEFFLKNLVAKRKTKDL
notes: Gly-His N-terminal appendage left after removal of the His6-SUMO tag; Holo form with two [4Fe-4S] clusters; also called holo-LIAS; source: E. coli BL21 (DE3) with pDB1282, purified under anoxic conditions (Ni-IMAC, SUMO tag removed with ULP1, SEC); not shown: His6, N-terminal, cleaved; SUMO, N-terminal, cleaved

Experiments:
[1] = target: B2; assay: ITC; 2 uL injections of LIAS (150 uM, syringe) into NFU1 (19 uM, cell) at 27 °C, anaerobic; 0.1 M HEPES pH 7.5, 0.5 M KCl, 5% glycerol, 2 mM TCEP; details: both partners purified
[2] = target: B1; assay: SEC; HiPrep 16/60 Sephacryl HR S-200 in an anaerobic glovebox, 0.5 mL/min; 50 mM HEPES pH 7.5, 250 mM KCl, 10% glycerol, 2.5 mM TCEP, 10 mM BME; holo-LIAS alone (100 uM), holo-NFU1 alone (200 uM) and a 1:1 mixture; masses from a calibration curve; peak fractions checked by SDS-PAGE; details: both partners purified

Binder | Kd [1] | stoichiometry N [2]
B1 | 700 ± 200 nM | 
B2 |  | 1
